Data from patent EP0251446B1, “Non-human Carbonyl hydrolase mutants, DNA sequences and vectors encoding same and hosts transformed with said vectors” (GENENCOR INTERNATIONAL, INC., priority 1986, dated 1988).

What was measured:
Assay type in all cases: biochemical, B. amyloliquefaciens
[1] = substrate: C[C@H](NC(=O)CCC(=O)O)C(=O)N[C@@H](C)C(=O)N1CCC[C@H]1C(=O)N[C@@H](CCCCN)C(=O)Nc1ccc([N+](=O)[O-])cc1; experiment: Kinetics of p-nitroanilide substrate hydrolysis, K166; details: other: Table XIV, 156 Glu / 166 Lys; value in parentheses; synthetic substrate with label as P-1 amino acid
[2] = substrate: C[C@H](NC(=O)CCC(=O)O)C(=O)N[C@@H](C)C(=O)N1CCC[C@H]1C(=O)N[C@@H](CCC(N)=O)C(=O)Nc1ccc([N+](=O)[O-])cc1; experiment: as above; details: other: Table XIV, 156 Glu / 166 Lys; value in parentheses; synthetic substrate with label as P-1 amino acid
[3] = substrate: CSCC[C@H](NC(=O)[C@@H]1CCCN1C(=O)[C@H](C)NC(=O)[C@H](C)NC(=O)CCC(=O)O)C(=O)Nc1ccc([N+](=O)[O-])cc1; experiment: as above; details: other: Table XIV, 156 Glu / 166 Lys; value in parentheses; synthetic substrate with label as P-1 amino acid
[4] = substrate: C[C@H](NC(=O)CCC(=O)O)C(=O)N[C@@H](C)C(=O)N1CCC[C@H]1C(=O)N[C@@H](CCC(=O)O)C(=O)Nc1ccc([N+](=O)[O-])cc1; experiment: as above
Source text: (§1) Wild-type subtilisin was purified from B. subtilis culture supernatants expressing the B. amyloliquefaciens subtilisin gene (Wells, J.A., et al. (1983) Nucleic Acids Res. 11, 7911-7925) as previously described (Estell, D.A., et al. (1985) J. Biol. Chem. 260, 6518-6521). Details of the synthesis of tetrapeptide substrates having the form succinyl-L-AlaL-AlaL-ProL-[X]-p-nitroanilide (where X is the P1 amino acid) are described by DelMar, E.G., et al. (1979) Anal. Biochem. 99, 316-320. Kinetic parameters, Km(M) and kcat-(s-^1) were measured using a modified progress curve analysis (Estell, D.A., et al. (1985) J. Biol. Chem. 260, 6518-6521). Briefly, plots of rate versus product concentration were fit to the differential form of the rate equation using a non-linear regression algorithm. Errors in kcat and Km for all values reported are less than five percent. The various substrates in Table VIII are ranged in order of decreasing hydrophobicity. Nozaki, Y. (1971), J. Biol. Chem. 246, 2211-2217; Tanford C. (1978) Science 200, 1012).
(§2) The construction of subtilisin mutants containing the substitution of the ionic amino acids Asp, Asn, Gln, Lys and Ang are disclosed in EPO Publication No. 0130756. The present example describes the construction of the mutant subtilisin containing Glu at position 166 (E166) and presents substrate specificity data on these mutants. Further data on position 166 and 156 single and double mutants is presented infra.
(§3) Each of these mutants was analyzed with the tetrapeptide substrates, succinyl-L-AlaL-AlaProL-X-p-nitroanilide, where X was Phe, Ala and Glu.
(§4) K166 is a common replacement amino acid in the 156/166 mutants described herein. The replacement of Lys for GIy166 was achieved by using the synthetic DNA cassette at the top right of Figure 21 which contained the triplet AAA for NNN. This produced fragment 2 with Lys substituting for GIy166.
(§5) These mutants, the single mutant K166, and the S156 and Q156 mutants of Example 8 were analyzed for substitute specificity against synthetic polypeptides containing Phe or Glu as the P-1 substrate residue.

[5] = substrate: C[C@H](NC(=O)CCC(=O)O)C(=O)N[C@@H](C)C(=O)N1CCC[C@H]1C(=O)N[C@@H](Cc1ccccc1)C(=O)Nc1ccc([N+](=O)[O-])cc1; experiment: as above; details: K166
Source text: as §1, §2, §3, §4, §5

[6] = substrate: C[C@H](NC(=O)CCC(=O)O)C(=O)N[C@@H](C)C(=O)N1CCC[C@H]1C(=O)N[C@@H](CCC(=O)O)C(=O)Nc1ccc([N+](=O)[O-])cc1; experiment: Kinetics of p-nitroanilide substrate hydrolysis, S156/K166
Source text: as §1
(§6) The multiple mutants were produced by combining fragments 1, 2 and 3 as described in Example 8. The mutants Q156/K166 and S156/K166 were selectively generated by differential phosphorylation as described. Alternatively, the double 156/166 mutants, c.f. Q156/K166 and S156/K166, were prepared by ligation of the 4.6kb Sacl-BamHI fragment from the relevant p156 plasmid containing the 0.6kb Sacl-BamHI fragment from the relevant p166 plasmid.
as §5
(§7) To isolate the contribution of electrostatics to substrate specificity from other chemical binding forces, these various single and double mutants were analyzed for their ability to bind and cleave synthetic substrates containing Glu, Gln, Met and Lys as the P-1 substrate amino acid. This permitted comparisons between side-chains that were more sterically similar but differed in charge (e.g., Glu versus Gln, Lys versus Met). Similarly, mutant enzymes were assayed against homologous P-1 substrates that were most sterically similar but differed in charge (Table XIV).

[7] = substrate: C[C@H](NC(=O)CCC(=O)O)C(=O)N[C@@H](C)C(=O)N1CCC[C@H]1C(=O)N[C@@H](CCCCN)C(=O)Nc1ccc([N+](=O)[O-])cc1; experiment: as above; details: other: Table XIV, 156 Ser / 166 Lys; value in parentheses; synthetic substrate with label as P-1 amino acid
Source text: as §1, §6, §5, §7

[8] = substrate: C[C@H](NC(=O)CCC(=O)O)C(=O)N[C@@H](C)C(=O)N1CCC[C@H]1C(=O)N[C@@H](CCC(N)=O)C(=O)Nc1ccc([N+](=O)[O-])cc1; experiment: as above; details: other: Table XIV, 156 Ser / 166 Lys; value in parentheses; synthetic substrate with label as P-1 amino acid
Source text: as §1, §6, §5, §7

[9] = substrate: C[C@H](NC(=O)CCC(=O)O)C(=O)N[C@@H](C)C(=O)N1CCC[C@H]1C(=O)N[C@@H](Cc1ccccc1)C(=O)Nc1ccc([N+](=O)[O-])cc1; experiment: as above; details: other: Table XIII, S156/K166; synthetic substrate with label as P-1 residue
Source text: as §1, §6, §5, §7

[10] = substrate: CSCC[C@H](NC(=O)[C@@H]1CCCN1C(=O)[C@H](C)NC(=O)[C@H](C)NC(=O)CCC(=O)O)C(=O)Nc1ccc([N+](=O)[O-])cc1; experiment: as above; details: other: Table XIV, 156 Ser / 166 Lys; value in parentheses; synthetic substrate with label as P-1 amino acid
Source text: as §1, §6, §5, §7

[11] = substrate: C[C@H](NC(=O)CCC(=O)O)C(=O)N[C@@H](C)C(=O)N1CCC[C@H]1C(=O)N[C@@H](CCCCN)C(=O)Nc1ccc([N+](=O)[O-])cc1; experiment: Kinetics of p-nitroanilide substrate hydrolysis, D166; details: other: Table XIV, 156 Glu / 166 Asp; value in parentheses; synthetic substrate with label as P-1 amino acid
Source text: as §1, §2, §3

[12] = substrate: C[C@H](NC(=O)CCC(=O)O)C(=O)N[C@@H](C)C(=O)N1CCC[C@H]1C(=O)N[C@@H](CCC(N)=O)C(=O)Nc1ccc([N+](=O)[O-])cc1; experiment: as above; details: other: Table XIV, 156 Glu / 166 Asp; value in parentheses; synthetic substrate with label as P-1 amino acid
Source text: as §1, §2, §3

[13] = substrate: CSCC[C@H](NC(=O)[C@@H]1CCCN1C(=O)[C@H](C)NC(=O)[C@H](C)NC(=O)CCC(=O)O)C(=O)Nc1ccc([N+](=O)[O-])cc1; experiment: as above; details: other: Table XIV, 156 Glu / 166 Asp; value in parentheses; synthetic substrate with label as P-1 amino acid
Source text: as §1, §2, §3

[14] = substrate: C[C@H](NC(=O)CCC(=O)O)C(=O)N[C@@H](C)C(=O)N1CCC[C@H]1C(=O)N[C@@H](CCC(=O)O)C(=O)Nc1ccc([N+](=O)[O-])cc1; experiment: Kinetics of p-nitroanilide substrate hydrolysis, Q156/K166
Source text: as §1, §6, §5, §7

[15] = substrate: C[C@H](NC(=O)CCC(=O)O)C(=O)N[C@@H](C)C(=O)N1CCC[C@H]1C(=O)N[C@@H](CCCCN)C(=O)Nc1ccc([N+](=O)[O-])cc1; experiment: as above; details: other: Table XIV, 156 Gln / 166 Lys; value in parentheses; synthetic substrate with label as P-1 amino acid
Source text: as §1, §6, §5, §7

[16] = substrate: C[C@H](NC(=O)CCC(=O)O)C(=O)N[C@@H](C)C(=O)N1CCC[C@H]1C(=O)N[C@@H](CCC(N)=O)C(=O)Nc1ccc([N+](=O)[O-])cc1; experiment: as above; details: other: Table XIV, 156 Gln / 166 Lys; value in parentheses; synthetic substrate with label as P-1 amino acid
Source text: as §1, §6, §5, §7

[17] = substrate: C[C@H](NC(=O)CCC(=O)O)C(=O)N[C@@H](C)C(=O)N1CCC[C@H]1C(=O)N[C@@H](Cc1ccccc1)C(=O)Nc1ccc([N+](=O)[O-])cc1; experiment: as above; details: other: Table XIII, Q156/K166; synthetic substrate with label as P-1 residue
Source text: as §1, §6, §5, §7

[18] = substrate: CSCC[C@H](NC(=O)[C@@H]1CCCN1C(=O)[C@H](C)NC(=O)[C@H](C)NC(=O)CCC(=O)O)C(=O)Nc1ccc([N+](=O)[O-])cc1; experiment: as above; details: other: Table XIV, 156 Gln / 166 Lys; value in parentheses; synthetic substrate with label as P-1 amino acid
Source text: as §1, §6, §5, §7

[19] = other: Table XIII, K166, synthetic substrate with label as P-1 residue
[20] = other: Table XIII, synthetic substrate with label as P-1 residue
[21] = other: Table XIII, S156/K166, synthetic substrate with label as P-1 residue
[22] = other: Table XIII, Q156/K166, synthetic substrate with label as P-1 residue

B1: B. amyloliquefaciens subtilisin variant K166 (Gly166 to Lys) (Bacillus amyloliquefaciens; G273K) (protein)
chain: AQSVPYGVSQIKAPALHSQGYTGSNVKVAVIDSGIDSSHPDLKVAGGASMVPSETNPFQDNNSHGTHVAGTVAALNNSIGVLGVAPSASLYAVKVLGADGSGQYSWIINGIEWAIANNMDVINMSLGGPSGSAALKAAVDKAVASGVVVVAAAGNEGTSGSSSTVKYPGKYPSVIAVGAVDSSNQRASFSSVGPELDVMAPGVSIQSTLPGNKYGAYNGTSMASPHVAGAAALILSKHPNWTNTQVRSSLENTTTKLGDSFYYGKGLINVQAAAQ
notes: at various amino acid residues within the mature form of the subtilisin molecule; made in house; host or cells: Bacillus subtilis BG2036
Km [1]: 1170 µM
Km [2]: 132 µM
Km [3]: 35.5 µM
Km [4, 19]: 56 µM
kcat [4, 19]: 0.70 s-^1
kcat/Km [4, 19]: 12000 M⁻¹ s⁻¹
Km ([4]; other: Table XIV, 156 Glu / 166 Lys, value in parentheses, synthetic substrate with label as P-1 amino acid): 56.2 µM
Km [5, 20]: 40 µM
kcat [5, 20]: 20.00 s-^1
kcat/Km [5, 20]: 520000 M⁻¹ s⁻¹
Km ([5]; other: Table XIX): 37 µM
kcat ([5]; other: Table XIX): 21 s-^1

B2: B. amyloliquefaciens subtilisin variant S156/K166 (Bacillus amyloliquefaciens; E263S/G273K) (protein)
chain: AQSVPYGVSQIKAPALHSQGYTGSNVKVAVIDSGIDSSHPDLKVAGGASMVPSETNPFQDNNSHGTHVAGTVAALNNSIGVLGVAPSASLYAVKVLGADGSGQYSWIINGIEWAIANNMDVINMSLGGPSGSAALKAAVDKAVASGVVVVAAAGNSGTSGSSSTVKYPGKYPSVIAVGAVDSSNQRASFSSVGPELDVMAPGVSIQSTLPGNKYGAYNGTSMASPHVAGAAALILSKHPNWTNTQVRSSLENTTTKLGDSFYYGKGLINVQAAAQ
notes: at various amino acid residues within the mature form of the subtilisin molecule; made in house
Km [6, 21]: 39 µM
kcat [6, 21]: 0.60 s-^1
kcat/Km [6, 21]: 16000 M⁻¹ s⁻¹
Km ([6]; other: Table XIV, 156 Ser / 166 Lys, value in parentheses, synthetic substrate with label as P-1 amino acid): 39.8 µM
Km [7]: 1450 µM
Km [8]: 115 µM
Km [9]: 18 µM
kcat [9]: 30.00 s-^1
kcat/Km [9]: 1.6e+06 M⁻¹ s⁻¹
Km [10]: 12.6 µM

B3: B. amyloliquefaciens subtilisin variant D166 (Gly166 to Asp) (Bacillus amyloliquefaciens; G273D) (protein)
chain: AQSVPYGVSQIKAPALHSQGYTGSNVKVAVIDSGIDSSHPDLKVAGGASMVPSETNPFQDNNSHGTHVAGTVAALNNSIGVLGVAPSASLYAVKVLGADGSGQYSWIINGIEWAIANNMDVINMSLGGPSGSAALKAAVDKAVASGVVVVAAAGNEGTSGSSSTVDYPGKYPSVIAVGAVDSSNQRASFSSVGPELDVMAPGVSIQSTLPGNKYGAYNGTSMASPHVAGAAALILSKHPNWTNTQVRSSLENTTTKLGDSFYYGKGLINVQAAAQ
notes: as for B1
Km [11]: 1000 µM
Km [12]: 2750 µM
Km [13]: 1820 µM

B4: B. amyloliquefaciens subtilisin variant Q156/K166 (Bacillus amyloliquefaciens; E263Q/G273K) (protein)
chain: AQSVPYGVSQIKAPALHSQGYTGSNVKVAVIDSGIDSSHPDLKVAGGASMVPSETNPFQDNNSHGTHVAGTVAALNNSIGVLGVAPSASLYAVKVLGADGSGQYSWIINGIEWAIANNMDVINMSLGGPSGSAALKAAVDKAVASGVVVVAAAGNQGTSGSSSTVKYPGKYPSVIAVGAVDSSNQRASFSSVGPELDVMAPGVSIQSTLPGNKYGAYNGTSMASPHVAGAAALILSKHPNWTNTQVRSSLENTTTKLGDSFYYGKGLINVQAAAQ
notes: as for B2
Km [14, 22]: 31 µM
kcat [14, 22]: 1.60 s-^1
kcat/Km [14, 22]: 50000 M⁻¹ s⁻¹
Km ([14]; other: Table XIV, 156 Gln / 166 Lys, value in parentheses, synthetic substrate with label as P-1 amino acid): 31.6 µM
Km [15]: 1780 µM
Km [16]: 209 µM
Km [17]: 19 µM
kcat [17]: 30.00 s-^1
kcat/Km [17]: 1.6e+06 M⁻¹ s⁻¹
Km [18]: 20.9 µM
